Measured values published in PMC6800506.

Biological target: tau RD containing the disease-associated P301S substitution fused to either CFP or YFP (human) (UniProt P10636)
Test: FRET or BRET; HEK293T tau biosensor cells with up to 200 nM freshly prepared, oligomeric or fibrillar Aβ, no tau seeds, no transfection reagent; FRET by flow cytometry after 48 h and after 2 weeks

## tau RD containing the disease-associated P301S substitution fused to either CFP or YFP (from UniProt P10636-8 244-372) (domain or fragment)
  integrated FRET density (IFD): < 10
